Results as given in article PMC3317225, “MsDpo4—a DinB Homolog from Mycobacterium smegmatis—Is an Error-Prone DNA Polymerase That Can Promote G:T and T:G Mismatches” (Journal of Nucleic Acids, 2012).

How the values were obtained:
Assay in all cases: steady-state primer extension, 6-FAM labelled primer, gel, Lineweaver-Burk
Format in all cases: biochemical, Mycolicibacterium smegmatis
[1] = substrate: Nc1ccn([C@H]2C[C@H](O)[C@@H](COP(=O)(O)OP(=O)(O)OP(=O)(O)O)O2)c(=O)n1; settings: template dG (correct pair G:C), 20 nM DNA T1P1, 1 nM enzyme, Mg2+, pH 8.0, 37°C (given for the primer extension assay), number in parentheses is standard error
Excerpt: (§1) steady-state primer extension, 6-FAM labelled primer, gel, Lineweaver-Burk on MsDpo4

[2] = substrate: Nc1nc2c(ncn2[C@H]2C[C@H](O)[C@@H](COP(=O)(O)OP(=O)(O)OP(=O)(O)O)O2)c(=O)[nH]1; settings: template dT (mismatch T:G, misincorporation), 20 nM DNA T2P1, 10 nM enzyme, Mg2+, pH 8.0, 37°C (given for the primer extension assay), number in parentheses is standard error
Excerpt: as §1

[3] = substrate: Cc1cn([C@H]2C[C@H](O)[C@@H](COP(=O)(O)OP(=O)(O)OP(=O)(O)O)O2)c(=O)[nH]c1=O; settings: template dG (mismatch G:T, misincorporation), 20 nM DNA T1P1, 10 nM enzyme, Mg2+, pH 8.0, 37°C (given for the primer extension assay), number in parentheses is standard error
Excerpt: as §1

[4] = substrate: Nc1ncnc2c1ncn2[C@H]1C[C@H](O)[C@@H](COP(=O)(O)OP(=O)(O)OP(=O)(O)O)O1; settings: template dT (correct pair T:A), 20 nM DNA T2P1, 1 nM enzyme, Mg2+, pH 8.0, 37°C (given for the primer extension assay), number in parentheses is standard error
Excerpt: as §1

B1: MsDpo4 (Mycolicibacterium smegmatis MC2 155) (protein)
chain: MTKWVLHVDLDQFLASVELRRRPDLRGQPVIVGGSGDPSEPRKVVTCASYEAREFGVHAGMPLRAAARRCPDATFLPSDPAAYDEASEQVMGLLRDLGHPLEVWGWDEAYLGADLPDESDPVEVAERIRTVVAAETGLSCSVGISDNKQRAKVATGFAKPAGIYVLTEANWMTVMGDRPPDALWGVGPKTTKKLAAMGITTVADLAVTDPSVLTTAFGPSTGLWLLLLAKGGGDTEVSSEPWVPRSRSHVVTFPQDLTERREMDSAVRDLALQTLAEIVEQGRIVTRVAVTVRTSTFYTRTKIRKLPAPSTDAGQIVDTALAVLDQFELDRPVRLLGVRLELAMDDVPRPAVTAGT
notes: msmeg_1014 in pGEX6P1, expressed as GST-MsDpo4 fusion in bacteria; single-chain Y-family polymerase
[1]
  Km: 4.3 (0.69) μM
[2]
  Km: 166.5 (39.01) μM
[3]
  Km: 165.5 (39.70) μM
[4]
  Km: 5.5 (1.54) μM
